Data taken from patent US20260116991A1 (HAINAN SIMCERE ZAIMING PHARMACEUTICAL, published 2026).

Tests used:
[1] = target: T1, human GPC3 on CHO-K1-human GPC3 cells (CHOK1-hGPC3.2B5) (human, UniProt P51654 25-554); assay: FACS, CHOK1-hGPC3.2B5 cells;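 also: flow cytometry of humanized antibodies binding to the cells over one hour in the cold, read as cell mean fluorescence intensity, with EC50 obtained by curve fitting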
T1 construct: whole, on cells

[2] = target: biotinylated labeled human GPC3 protein (produced in-house) (human, UniProt P51654 25-559, limits assumed, biotinylated (Dojindo, Cat. No. LK03); sites not stated); assay: ELISA, biotinylated human GPC3 protein

Row | Binder | EC50 [1] [nM] | Max MFI [1] [MFI] | OD450 at 0.0004 nM [2] [OD450] | OD450 at 0.002 nM [2] [OD450] | OD450 at 0.011 nM [2] [OD450] | OD450 at 0.056 nM [2] [OD450] | OD450 at 0.28 nM [2] [OD450] | OD450 at 1.39 nM [2] [OD450] | OD450 at 6.94 nM [2] [OD450] | OD450 at 34.72 nM [2] [OD450] | OD450 at 0.0008 nM [2] [OD450] | OD450 at 0.004 nM [2] [OD450] | OD450 at 0.02 nM [2] [OD450] | OD450 at 0.11 nM [2] [OD450] | OD450 at 0.53 nM [2] [OD450] | OD450 at 2.67 nM [2] [OD450] | OD450 at 13.33 nM [2] [OD450] | OD450 at 66.66 nM [2] [OD450]
1 | hAb003LH3L1a (antibody, human IgG1, V domains shown, Humanized F2.154.1; VH H3 + VL L1a; expressed as human IgG1) VH: EVQLVQSGAEVKKPGSSVKVSCKASGYRFTDYEMHWVRQAPGQGLEWMGTIDPETGNTAYTQKFMDRVTLTADKSTSTAYMELSSLRSEDTAVYYCTRGYSFTYWGQGTLVTVSS VL: DIVMTQTPLSLPVTPGEPASISCRSSQNIVHSDGNTYLQWYLQKPGQSPQLLIFKVSNRFSGVPDRFSGSGSGTDFTLKISRVEAEDVGVYYCFQGSHVPFTFGQGTKLEIK | 6.02 | 2240 | – | – | – | – | – | – | – | – | 0.086 | 0.128 | 0.423 | 1.3 | 2.04 | 2.13 | 2.15 | 2.48
2 | hAb007LH1L1b (antibody, human IgG1, V domains shown, Humanized F3.81.19; VH H1 + VL L1b; expressed as human IgG1) VH: EVQLVQSGAEVKKPGSSVKVSCKASGYTFSDYEMHWVRQAPGQGLEWMGTIDPETGNTAYNQKFKGRVTITADKSTSTAYMELSSLRSEDTAVYYCTRPYSLTYWGQGTLVTVSS VL: DIVMTQTPLSLPVTPGEPASISCRSSQSFVHSNRDTYLQWYLQKPGQSPQLLIYKVSNRFSGVPDRFSGSGSGTDFTLKISRVEAEDVGVYYCFQGSHVPYTFGQGTKLEIK | 6.47 | 6070 | – | – | – | – | – | – | – | – | 0.099 | 0.137 | 0.341 | 1.07 | 1.98 | 2.34 | 2.38 | 2.46
3 | hAb007LH1L1e (antibody, human IgG1, V domains shown, Humanized F3.81.19; VH H1 + VL L1e; expressed as human IgG1) VH: EVQLVQSGAEVKKPGSSVKVSCKASGYTFSDYEMHWVRQAPGQGLEWMGTIDPETGNTAYNQKFKGRVTITADKSTSTAYMELSSLRSEDTAVYYCTRPYSLTYWGQGTLVTVSS VL: DIVMTQTPLSLPVTPGEPASISCRSSQSFVHSNVDTYLQWYLQKPGQSPQLLIYKVSNRFSGVPDRFSGSGSGTDFTLKISRVEAEDVGVYYCFQGSHVPYTFGQGTKLEIK | 10.4 | 15000 | 0.049 | 0.05 | 0.058 | 0.104 | 0.248 | 0.732 | 1.17 | 0.921 | – | – | – | – | – | – | – | –
4 | hAb007LH2L1b (antibody, human IgG1, V domains shown, Humanized F3.81.19; VH H2 + VL L1b; expressed as human IgG1) VH: EVQLVQSGAEVKKPGSSVKVSCKASGYTFTDYEMHWVRQAPGQGLEWMGTIDPETGNTAYNQKFKGRVTITADKSTSTAYMELSSLRSEDTAVYYCTRPYSLTYWGQGTLVTVSS VL: DIVMTQTPLSLPVTPGEPASISCRSSQSFVHSNRDTYLQWYLQKPGQSPQLLIYKVSNRFSGVPDRFSGSGSGTDFTLKISRVEAEDVGVYYCFQGSHVPYTFGQGTKLEIK | 6.16 | 6040 | – | – | – | – | – | – | – | – | 0.099 | 0.133 | 0.297 | 0.924 | 1.84 | 2.2 | 2.33 | 2.25
5 | hAb007LH1L1d (antibody, human IgG1, V domains shown, Humanized F3.81.19; VH H1 + VL L1d; expressed as human IgG1) VH: EVQLVQSGAEVKKPGSSVKVSCKASGYTFSDYEMHWVRQAPGQGLEWMGTIDPETGNTAYNQKFKGRVTITADKSTSTAYMELSSLRSEDTAVYYCTRPYSLTYWGQGTLVTVSS VL: DIVMTQTPLSLPVTPGEPASISCRSSQSFVHSNSDTYLQWYLQKPGQSPQLLIYKVSNRFSGVPDRFSGSGSGTDFTLKISRVEAEDVGVYYCFQGSHVPYTFGQGTKLEIK | 6.28 | 18200 | 0.059 | 0.057 | 0.101 | 0.16 | 0.503 | 1.1 | 1.34 | 1.31 | – | – | – | – | – | – | – | –
6 | hAb007LH3L1 (antibody, human IgG1, V domains shown, Humanized F3.81.19; VH H3 + VL L1; expressed as human IgG1) VH: EVQLVQSGAEVKKPGSSVKVSCKASGYTFTDYEMHWVRQAPGQGLEWMGTIDPETGNTAYNQKFKGRVTLTADKSTSTAYMELSSLRSEDTAVYYCTRPYSLTYWGQGTLVTVSS VL: DIVMTQTPLSLPVTPGEPASISCRSSQSFVHSNGDTYLQWYLQKPGQSPQLLIYKVSNRFSGVPDRFSGSGSGTDFTLKISRVEAEDVGVYYCFQGSHVPYTFGQGTKLEIK | 6.98 | 6760 | – | – | – | – | – | – | – | – | 0.097 | 0.133 | 0.323 | 0.959 | 1.78 | 2.11 | 2.16 | 2.19
7 | hAb007LH3L1b (antibody, human IgG1, V domains shown, Humanized F3.81.19; VH H3 + VL L1b; expressed as human IgG1) VH: EVQLVQSGAEVKKPGSSVKVSCKASGYTFTDYEMHWVRQAPGQGLEWMGTIDPETGNTAYNQKFKGRVTLTADKSTSTAYMELSSLRSEDTAVYYCTRPYSLTYWGQGTLVTVSS VL: DIVMTQTPLSLPVTPGEPASISCRSSQSFVHSNRDTYLQWYLQKPGQSPQLLIYKVSNRFSGVPDRFSGSGSGTDFTLKISRVEAEDVGVYYCFQGSHVPYTFGQGTKLEIK | 7.33 | 6240 | – | – | – | – | – | – | – | – | 0.088 | 0.112 | 0.225 | 0.784 | 1.8 | 2.21 | 2.25 | 2.29

Stronger by EC50 [1], values ahead:

Row | EC50 [1] [nM] | Max MFI [1] [MFI] | OD450 at 0.0004 nM [2] [OD450] | OD450 at 0.002 nM [2] [OD450] | OD450 at 0.011 nM [2] [OD450] | OD450 at 0.056 nM [2] [OD450] | OD450 at 0.28 nM [2] [OD450] | OD450 at 1.39 nM [2] [OD450] | OD450 at 6.94 nM [2] [OD450] | OD450 at 34.72 nM [2] [OD450] | OD450 at 0.0008 nM [2] [OD450] | OD450 at 0.004 nM [2] [OD450] | OD450 at 0.02 nM [2] [OD450] | OD450 at 0.11 nM [2] [OD450] | OD450 at 0.53 nM [2] [OD450] | OD450 at 2.67 nM [2] [OD450] | OD450 at 13.33 nM [2] [OD450] | OD450 at 66.66 nM [2] [OD450] | Binder
8 | 4.61 | 18200 | 0.052 | 0.064 | 0.098 | 0.25 | 0.718 | 1.09 | 1.45 | 1.29 | – | – | – | – | – | – | – | – | hAb007LH1L1c (antibody, human IgG1, V domains shown, Humanized F3.81.19; VH H1 + VL L1c; expressed as human IgG1) VH: EVQLVQSGAEVKKPGSSVKVSCKASGYTFSDYEMHWVRQAPGQGLEWMGTIDPETGNTAYNQKFKGRVTITADKSTSTAYMELSSLRSEDTAVYYCTRPYSLTYWGQGTLVTVSS VL: DIVMTQTPLSLPVTPGEPASISCRSSQSFVHSNADTYLQWYLQKPGQSPQLLIYKVSNRFSGVPDRFSGSGSGTDFTLKISRVEAEDVGVYYCFQGSHVPYTFGQGTKLEIK
9 | 2.06 | 15800 | 0.06 | 0.085 | 0.187 | 0.592 | 1.23 | 1.36 | 1.44 | 1.32 | – | – | – | – | – | – | – | – | hAb006LH3L1e (antibody, human IgG1, V domains shown, Humanized F3.38.7; VH H3 + VL L1e; expressed as human IgG1) VH: EVQLVQSGAEVKKPGSSVKVSCKASGYTFTDYEIHWVRQAPGQGLEWMGAIDPKTGNTAYNQKFMGRVTLTADKSTSTAYMELSSLRSEDTAVYYCTRYFSFAYWGQGTLVTVSS VL: DIVMTQTPLSLPVTPGEPASISCRSSQTFVHSNVNTYLQWYLQKPGQSPQLLIYKVSNRFSGVPDRFSGSGSGTDFTLKISRVEAEDVGVYYCFQGSHVPYTFGQGTKLEIK
10 | 2.02 | 6440 | – | – | – | – | – | – | – | – | 0.109 | 0.17 | 0.496 | 1.36 | 2.14 | 2.42 | 2.38 | 2.43 | hAb007LH1L1 (antibody, human IgG1, V domains shown, Humanized F3.81.19; VH H1 + VL L1; expressed as human IgG1) VH: EVQLVQSGAEVKKPGSSVKVSCKASGYTFSDYEMHWVRQAPGQGLEWMGTIDPETGNTAYNQKFKGRVTITADKSTSTAYMELSSLRSEDTAVYYCTRPYSLTYWGQGTLVTVSS VL: DIVMTQTPLSLPVTPGEPASISCRSSQSFVHSNGDTYLQWYLQKPGQSPQLLIYKVSNRFSGVPDRFSGSGSGTDFTLKISRVEAEDVGVYYCFQGSHVPYTFGQGTKLEIK
